# Assay results as given in publication PMC2704394 (2009).
# B1: full length S. pombe Pik1, wild type [S. pombe] / purified Cdc4 protein [S. pombe] (parent)
# chain 1: MPSSNSGNELLLRFFESAHFTSQLCVAYLSRYPNNIGIHHFLCEKLATFPYEEIEFFIPQLIHLVLNKDSESVALEEFIISQCEQNTQCALITFWYLQAHMVDLGLQPHSSCFKICKRLYNRIQILVFMSSSSLIQSQQKISENVTPALILSGIMLGGVCVPELLKKAGPIAIAQGRKAPRQDPDESDVDVLRRLSTEPRYSLDVLRSSLNNSIVEQHSEVSLRLKAPELTRTHSYQSSATLSIDEQRRVLRSNYFQQEIQFLFALQDISIRLIIVPRQARLSSLRAELALLNNNLPADVNIPLLRSYHKEVSHKIVRIDPKEATILNSAERVPYLIMVEVLSGELSFEPQSKKNKAKVQKIVSHKNQRKRWFDLTDVDPYTNLQDSTDNDISESESEGGDLSMSPLIKGLVPDTLSLSKSFSSFGNVSLQVPSSHRDTDVVLLSGRHSDSDGNGALKRSKIYASEITARMRAAATMLSQLDAEGSRRPKAETERIKNSIILDMQRLEEERLNEPSIYPVSVDISCAEDLRFGKETQKAERKGDRDDPSAATFQEDWYAKKERIRKSSPYGHYPNWDLVSVIVKTGADLRQETFACQLIYAFQRVWLECKEKVWVRRMKILVTGDNSGLIETITNAISVHSIKKNLTKQLREAELAQGKIAGKNVVTLKDYFIKQFGDPNSSRYRQAQTNFLQSLVAYSIISYLLQLKDRHNGNVLIDSEGHIIHIDFGFLLTNTPGNVGFESAPFKLTADYLEILDDRFDEYRSLMKAAFKSVRKNADQIILLVEVMQNNSTMPCFRAGENTSAQLLQRFQLQLGDKECDDFVDLLIQKANCSVWTRLYDLFQNITNGIY
# chain 2: MSTDDSPYKQAFSLFDRHGTGRIPKTSIGDLLRACGQNPTLAEITEIESTLPAEVDMEQFLQVLNRPNGFDMPGDPEEFVKGFQVFDKDATGMIGVGELRYVLTSLGEKLSNEEMDELLKGVPVKDGMVNYHDFVQMILAN
# Variants of: B1
# Test: sandwich ELISA
# Details: with purified Cdc4 protein [S. pombe]; about 7 µg lysate protein; cells grown in the absence of thiamine; Cdc4-coated wells; parent: 0.02; read off a plot
row,response [Absorbance],Variant
1,0.083,chain 1 D709A

# Same assay, conditions: with purified Cdc4 protein [S. pombe]; about 14 µg lysate protein; cells grown in the absence of thiamine; Cdc4-coated wells; parent: 0.03; read off a plot
row,response [Absorbance],Variant
1,0.13,chain 1 D709A

# Same assay, conditions: with purified Cdc4 protein [S. pombe]; about 28 µg lysate protein; cells grown in the absence of thiamine; Cdc4-coated wells; parent: 0.073; read off a plot
row,response [Absorbance],Variant
1,0.21,chain 1 D709A

# Same assay, conditions: with purified Cdc4 protein [S. pombe]; about 56 µg lysate protein (highest point of 2-fold serial dilution); cells grown in the absence of thiamine; Cdc4-coated wells; parent: 0.27; read off a plot
row,response [Absorbance],Variant
1,0.57,chain 1 D709A
